In the DeepSol protein solubility set:

test: soluble on expression in E. coli; label from the status in PepcDB or PDB records

Sequence | soluble on expression in E. coli
MKRVDSVISLIYSLSKSEKKHFSLQVIKDKEEKDYLVIYDIIIKSKQPNGNTVKEEFYRRKPNGSFEVSIQYLYEKLTDTLLTLRKKKDIYYDLLNNLCKARMLYERSLFEECFEILSNTIEQAQFYENNEILTIALKLELEYLLRLNFPNMTEQELFHKHFIQNEALKKIRKITEQSSLHNLLKYRLSHIGSIRTVKQKQDMNDLMVNELYIAASSDSEGNFELTRNHKLFQANYLMGAGDYRAALNSYKELDSLFEQNQQFWSNPPIYYLSVLEGVLGSLRSVSNYDEIPYFLDKLRKLISDSTSLEFKVNATCLLFQYELFPYLDKGDFSKCTQLMADYQEILYDKEAWLGPIRKSELLLYTTLVHIGNQEYKTAKKYISNAIIDHNIKYLPLMRTIRLVRLIVFYEVQEHELIQYESRSITRSLSSPKEQTFKTERIILWFLNKRNIPILKKDREAFWEKLSPEIHELYNNKYESQLLRLFDFTAWMESKIRKEKLSEVLRARASAKEC | not soluble
MKRVRKAIIPAAGLGTRFLPATKAMPKEMLPIVDKPTIQYIVEEAVKSGIEDIIIVTGKTKRSIEDHFDNAFELEQNLLEKKKYELLEKVQASSKMVDIHYIRQKEPKGLGHAVWCARKFIGDEPFAVLLGDDIVQAEKPCLRQLIEEYDKTLSSVIGVQTVPEDETHRYGIIDPLEQEGRRYQVRNFVEKPAAGTAPSNLAIMGRYVLTPEIFMFLEQQHVGAGGEIQLTDAIQSLNEIQRVFAYDFEGKRYDVGEKLGFVQTTIEMALQHPELRDDMVTMMKKILEEQTNQES | not soluble
MKSIYYLSADDLFQMNTFLIQTYSPAEQIGIKDRNALEMASNQPAQFVFDVDLYPTIEEKAAILMINIATKHCFYNANKRTAVMATDLFLQLNGYDFQLDTQEGVDLLVFIATYRSDFDQLKNDVSKVIRAKLNHTSSHLEHHHHHH | soluble
MKSKLICIIMVIAFQAHFTMTVKADSVGEEKLQNNTQAKKTPADLKALPDSCEAKDFYKNFKILDMTKDKLGVTHYTLALSSGGYLTDNDEIKVHVTPDNKITFINGDLQQGQLRITNQIKITEKNAIEKAFEAIGQSEAHVKSYVGNPVKEKEIILNSRTKRLVYNIKLIFAEPEVASWIVQVDVETGAILKKQNMLSEVERADTHKDFQALGKGANRLLQRPLHVMKINDLFYLVDRTHKGLIRTFDLKHNTDTSFGKVVSNKTNMFTDPEFSSAVDAHFYASEVYEYYKNVHQLESLDGKGGEIDSFVHYGLNCNNAFWDGQEILYGDGDKKNFKPFSCAKTIVGHELTHAVIQYSAGLEYEGQSGALNESFADVFGYFIAPNHWLIGEDVCVRGSRDGRIRSIKDPDKYNQAAHMKDYESLPLTEEGDWGGVHYNSGIPNKAAYNTITKLGKEKTEQLYFRALKYYLTKKSQFTDAKKALQQAAKDLYGEDASKKVAEAWEAVGVN | not soluble
MKSLGNRQRFLRRAREELKRSIRDKVRAGGIAELDREHVVPIPRKGTGEPTFGDDKESGRRQHILPGNRTFSSGDLIPKPGGGGGYGSAAGTTESEDDFRFVLSREEVLDLFFEDLELPDLVKLNLKQVLSFKPRRAGFAASGAPTNINVGRTMRNSHGRRIALRRPKQAELDAIARQIAELEAKPASALVRERIAALREALDRLERRRKRIAYVDPVDIRFNRFDPQPLPNANAVMFCLMDVSGSMGEREKDLAKRFFVLLHLFLTRRYERTDIVFIRHTHLAKEVDEHTFFYHTESGGTVVSTALEEMHRIIEQRYPVAEWNIYAAQASDGDNFAGDSERCIELLDRKLMRLCQYFAYVEIIDERESHIFGATENGTSLWRAYNAVDGKWPNFQMRRIAAPADIYPVFRQLFARQPDLRKSALEHHHHHH | soluble
MKSNPKYFLMNDVERQSKYSPKYVPNNSLKERILEFLDYYIAPLKLYLLSYPMPDCLWDNRKLRLKASGVQVTPSSEPVHIDDRLIHISQKQPSE | not soluble
MKSRAAVAFAPGKPLEIVEIDVAPPKKGEVLIKVTHTGVCHTDAFTLSGDDPEGVFPVVLGHEGAGVVVEVGEGVTSVKPGDHVIPLYTAECGECEFCRSGKTNLCVAVRETQGKGLMPDGTTRFSYNGQPLYHYMGCSTFSEYTVVAEVSLAKINPEANHEHVCLLGCGVTTGIGAVHNTAKVQPGDSVAVFGLGAIGLAVVQGARQAKAGRIIAIDTNPKKFDLARRFGATDCINPNDYDKPIKDVLLDINKWGIDHTFECIGNVNVMRAALESAHRGWGQSVIIGVAVAGQEISTRPFQLVTGRVWKGSAFGGVKGRSQLPGMVEDAMKGDIDLEPFVTHTMSLDEINDAFDLMHEGKSIRTVIRY | soluble
MKSVVLGILSSISDEVNLEMIKKYDVKLARRISGGGSVFHDMGNINYTFITSGQGGIDYLYGYLLRGTISAIENLVNDRVEVYNETDIAFKGYKISGNAGYINEDKYLLHGTLLVSSNLDI | soluble
MKSYAILNQNNLFLSLEELKAIIDSDEVEYYHGVALFNKEPNNVAKRSSLIKYSGRVIAISHDVNEIVKNIKGECFSVDPTVITKEYKSEFLSIYDRIINNIKVSKKCKKMDLIFTEGLIIAGLRVEEKDNESLFKHSKKPYSQSGTLSPDIGRLMVNLSKSRKTILDPFVGTGTILIEAKWLGLNCIGLDVDSKMIEKSLVNLRYFGYECDILRGDATSLPFNNIEAIVTDPPYGRSVSVREGINNLYEGFFYSASNITRTLVFTTDSKLDWRDKLKEVGFNDISIHFIYEHKSLSRAIYVVRKK | soluble
MKTIEVDDELYSYIASHTKHIGESRSDILRRMLKFSAASQKPVKTIKDKVRAMRELLLSDEYAEQKRAVNRFMLLLSTLYSLDAQAFAEATESLHGRTRVYFAADEQTLLKNGNQTKPKHVPGTPYWVITNTNTGRKCSMIEHIMQSMQFPAELIEKVCGTI | soluble
MKTIIFALNDHSPKYKQIYEKLKSLIERGDIQANEPLPSIRQLAESLNVSRNTTLMAYEQLAAEGYIRAEKRKGYFANEVEPLFIPKARISARQPAREAAAPVVVDFARRCR | not soluble
MKTKLDFLKMKESEEPIVMLTAYDYPAAKLAEQAGVDMILVGDSLGMVVLGLDSTVGVTVADMIHHTKAVKRGAPNTFIVTDMPFMSYHLSKEDTLKNAAAIVQESGADALKLEGGEGVFESIRALTLGGIPVVSHLGLTPQSVGVLGGYKVQGKDEQSAKKLIEDSIKCEEAGAMMLVLECVPAELTAKIAETLSIPVIGIGAGVKADGQVLVYHDIIGHGVERTPKFVKQYTRIDETIETAISGYVQDVRHRAFPEQKHSFQMNQTVLDGLYGGKLEHHHHHH | soluble
MKTNYHTHTTRCMHAVGDDEDYVRSAIKGGFQELGFSDHGPWKYHTDFVSDIRMLPEDLPEYIESIRALKEKYRNQISIKIGLEYEYFPEYIHWLKEIIKEYRLDYILFGNHHYHTDEKFPYFGHHTTNRDMLDLYEESTIEGMESGLFAYLAHPDLFMRSYPEFDKHCISVSRHICRAAARLHIPLEYNIGYVAINEARGITTYPCPQFWHIAANEGCTAIIGLDAHNNLDLENPTYYDRACQELNALKMPVIDTIPFLKY | not soluble
MKTPVCSEEQGPARDVIAQLLEDALQVESQEQPEQAFVKPHLVSEFDIYGFRTVPDDDEEEKLVAKVRALDLKTLYLTDNQEVSTGVKWENYFASTMNREMACSPELKNLIRAGIPHEHRSKVWKWCVDRHTRKFKDSMEPDYFQTLLQKALEKQNPASKQIELDLLRTLPNNKHYSSPTSEGIQKLRSVLLAFSWRNPDIGYCQGLNRLVAVALLYLDQEDAFWCLVTIVEVFMPRDYYTKTLLGSQVDQRVFRDLLSEKLPRLHTHFEQYKVDYTLITFNWFLVVFVDSVVSDILFKIWDSFLYEGPKVIFRFALALFKYKEEEILKLQDSMSIFKYLRYFTRTILDARKLISISFGDLNPFPLRQIRNRRAYHLEKVRLELTELEAIREDFLRERDTSPDKGELVSDEEEDT | not soluble
MKTQRIIHPNIDIRKFPEVNTDFSMTDISMGDLHANALLFLNILVRQGIIAISPENYAKFAEIYTLPELQADYWGTEAPVFSAENKQERLEEIKKQYNALIAQIKIINTKKLIRLIGDELVDRGVIDYFILKLLQALYDQGADFEILLSNHGIEFVEACELFKENGNKLVAKRLGNIQHGNSFHALQEAIAAGAISNEEVLNIYHQVYKKHLKIISYSLDPDANEIKVFSHAGIGLNHIRGLARKFKVPYSEESAVDLAKTIDAINKKFAEKASSGEIHTLYTHDMMYRGYAGEHLNSTDEVVAATVWGREYGDLIRTSKKFKITFIHGHDSYDPEKVEHVTLNNQLGQFQNNVGDLYLYATNGMRAVPTQYLNPDKKIQGSREKDRPDKPNDYVVKIHHTKPSFFKTSNPKITFPDSYKRIWDSADGDSNITKIKALLKDYTKEDSILGSFWGLIFTLHWGRHHVKSVHQIAQTKYTSVEAILSDLKALKPREGGSLDKRIKFIELQIIAQRCDSPEPQFNLK | not soluble
MKTRESSVGLKFRKFNRFYTNVLGFLNEHIYDSPFSLTETRILFEIYNTPNCTAKALQDKLGLDRGYVSRIVKQFEKEDLIYKQRSKDDARHHYIFVTETGKTIYKKLEEKANEQVELMLKVINQKEQHKLAEAMAEIEAILSQSLSARASEISIRDYFLSEDLQLLIEKQRQFYAEAHGWDDTFLAYLQETFDADIEKIWIAESGGKFAGSVGLVKHDEKTVQLRWFLVDADFRGRGLGTQLLEHLVAYCQDMKFDRIFLWTVSTMAEARPLYKKFGFRISEVKQEAPLWGQQLTEERWDLELS | soluble
MKTRSEVFQFEKELKWEHPAPGIRRQIMGYDGQLMMVKVEFEKGAVGTLHEHYHSQATYVASGKFELTIGDRKEILSTGDGYYVAPDEPHGCVCLEAGVLIDTFSPMRADFLE | not soluble
MKTVICGVQNMTTIRRLSAEDLLHFNSVNLDQLTETFNLGFYFNYLARWPDYQYVVTDSQSTTVAYIIGKAEGAGDLFHGHVSAVTVAPWFRRMGLASLLMEILENVSEKVYQGYFVDLFVRVSNHRAIEMYKKLGYIVYRRIIGYYSGEEDAFDMRKSLSKDPERKAMIPLDRPVYPSEVLLTD | soluble
MKTVLLTGFDPFGGESINPAWEVAKSLHEKTIGEYKIISKQVPTVFHKSISVLKEYIEELAPEFIICIGQAGGRPDITIERVAINIDDARIADNEGNQPVDVPVVEEGPAAYWSTLPMKAIVKKLQEEGIPASVSQTAGTFVCNHLFYGLMHELEKHDTKMKGGFIHIPFLPEQASNYPGQPSMSLSTIRKGIELAVEVTTTVEVDIVEVGGTTH | soluble
MKTVYLTIDDGPSKDRKEKVDILYQYGIQPIWFCIGSEIEKRPEDVIYSIRKGGIIGNHSYSHPRFSQISLEECFEEIEKTDRIIDSIYREAGVARPIKAFRFPYGDKGEDNNFFKKPYSEEGKKKISKIMTFLKELGYTKPKFDGITYEYYSKFGLKDDIDWYWTYDVAEWCTFQEKPMFGVRTIDDVFELMELDLPEKWAGLNYPYSDDIILMHDHPQTTPLFKPIICQLLKKGLHFGAIPLE | soluble
MKVAVLDFGKTNSKLFVFGQDGGILDERRTQPKWTHQDGFSVLDEAALHDWALGAVTEAVENHGVEGVMVSGHGCTFALVDDAALTHPILDYEQEPPAEIAARIDHRIPDFAETFSPRLPLGFNYGRHMLWVQEVDPDAFAAAKSILGYPQYWSWRLGGRPVSEVSYLGCHSHLWAPRSQDFSSLVDAEGWRGQMPAFARAGAVIGERRLGSSSRPIAIHNGVHDSNAALHAYRRQELGPLTVVSTGTWVVVLNPGCPLDVLDRDRDMLVNVDVDGGPVPTIRFMGGREFAAISAGWQGAIPPGAVQQAIDAGIMALPSFAPGGPMPDRPGRLVGRTPYAAERAAAALLYVALMVDLCLDLIQSQDTVIVDGGLNAGGLLAGLLAELRPGQAFLQGATLEGSATGAAALAFESVGRDFVAEAPEPVHAARFAGLAGYRDAWRDRVGGQGTAIKAAGGARLEHHHHHH | not soluble
